Key:
[1] = target: T1, human LAG-3 protein with hFc tag (hLAG-3-hFc protein) (human, UniProt P18627 23-450); experiment: FACS, blocks LAG-3-hFc binding to MHC II on Raji; 200.000 nM
T1 construct: also called immunogen 1; LAG-3 extracellular domain protein; not shown: human IgG Fc fragment (hFc) of the pCpC vector
T1 sequence: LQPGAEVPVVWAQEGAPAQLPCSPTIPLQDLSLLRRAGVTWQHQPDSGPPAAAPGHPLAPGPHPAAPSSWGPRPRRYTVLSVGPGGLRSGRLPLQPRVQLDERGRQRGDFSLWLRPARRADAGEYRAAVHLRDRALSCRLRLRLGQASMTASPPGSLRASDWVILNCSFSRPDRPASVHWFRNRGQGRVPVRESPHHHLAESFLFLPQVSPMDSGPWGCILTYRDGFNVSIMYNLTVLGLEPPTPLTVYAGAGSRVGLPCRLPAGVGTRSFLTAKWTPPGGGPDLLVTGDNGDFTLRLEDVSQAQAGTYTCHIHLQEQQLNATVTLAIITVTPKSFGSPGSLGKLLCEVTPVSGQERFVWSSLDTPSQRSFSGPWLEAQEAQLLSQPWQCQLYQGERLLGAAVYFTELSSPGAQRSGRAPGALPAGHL
Description: The FACS reaction plate incubating the Raji cells was centrifuged to discard the supernatant. The above mixture was added as 100 μl per well to Raji cells and incubated on ice for 1-2 hours. The plate was washed twice with blocking solution (PBS, 2% fetal bovine serum) by centrifugation, added with 100 microliters of fluorescent (Alexa 488)-labeled secondary antibodies per well, and incubated on ice for 1.0 hours. The plate was washed 2-3 times by centrifugation with blocking solution (PBS, 2% fetal bovine serum), added with 100 microliters of PBS per well to suspend cells, and detected using FACS (FACS Calibur, BD) and the results were analyzed. Wherein, the IgG control was murine IgG, and the data in the table is the inhibition rate (%).

[2] = target: T2, mouse LAG-3 protein with hFc tag (mLAG-3-hFc protein) (mouse; human, UniProt Q61790 24-442); experiment: ELISA, mLAG-3-hFc coated; 66.6670 nM
T2 construct: Made in HEK293 cells; also called mouse LAG-3 extracellular domain protein; not shown: human IgG Fc fragment (hFc) of the pCpC vector
T2 sequence: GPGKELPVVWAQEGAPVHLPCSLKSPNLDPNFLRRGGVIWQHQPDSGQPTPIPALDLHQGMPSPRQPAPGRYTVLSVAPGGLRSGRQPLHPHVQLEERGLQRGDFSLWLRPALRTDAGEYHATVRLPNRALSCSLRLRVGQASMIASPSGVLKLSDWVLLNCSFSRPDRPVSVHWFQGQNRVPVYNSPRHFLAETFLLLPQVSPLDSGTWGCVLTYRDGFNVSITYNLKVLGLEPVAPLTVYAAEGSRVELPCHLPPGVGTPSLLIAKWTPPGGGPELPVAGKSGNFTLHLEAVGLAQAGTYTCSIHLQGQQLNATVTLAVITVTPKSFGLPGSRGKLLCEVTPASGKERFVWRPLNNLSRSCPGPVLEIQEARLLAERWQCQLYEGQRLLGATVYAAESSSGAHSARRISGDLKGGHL
Description: (§1) The plate was sealed with plastic film and incubated overnight at 4° C. The plate was washed 2 times with the plate washing solution (PBS+0.01% Tween20) on the next day, and added with the blocking solution (PBS+0.01% Tween20+1% BSA) and blocked at room temperature for 1-2 hours. The blocking solution was poured out, and the plate was added with 50-100 μl of the antibody sample to be tested to each well, incubated at 37° C. for 1-2 hours, and washed 2-3 times with a plate washing solution (PBS+0.01% Tween20). HRP (horseradish peroxidase) labeled secondary antibody was added, and the plate was incubated at 37° C. for 1-2 hours, and washed 2-3 times with a plate washing solution (PBS+0.01% Tween20). 100 μl of TMB substrate was added to each well. After incubated at room temperature for 15-30 minutes, the plate was added with 100 μl of stop solution (1.0N HCl) to each well.

[3] = target: T1, human LAG-3 protein with hFc tag …; experiment: ELISA, hLAG-3-hFc coated; 0.0067 nM
Description: as §1

[4] = target: T2, mouse LAG-3 protein with hFc tag …; experiment: ELISA, mLAG-3-hFc coated; 0.0000 nM
Description: as §1

[5] = target: T2, mouse LAG-3 protein with hFc tag …; experiment: ELISA, mLAG-3-hFc coated; 0.0001 nM
Description: as §1

[6] = target: T1, human LAG-3 protein with hFc tag …; experiment: ELISA, hLAG-3-hFc coated; 66.6670 nM
Description: as §1

B1: 405B8H3 (mouse antibody purified from hybridoma) (antibody, V domains shown)
VH: QVQLQQSGAELVRPGASVTLSCKASGYTFTDYEMHWVKQTPVHGLEWIGATDPETGNSAYNQKFKGKAIMTADKSSSTAYMELRSLTSEDSAVYYCISTGWNDWGQGTSLTVSS
VL: DIKMTQSPSSMYASLGERVTITCKASQDINSYLSWFQQKPGKSPKTLIYRADRLLDGVPSRFSGSGSGQDYSLTISSLEYGDMGIYYCLQYDEFPYTFGGGTKLEIK
notes: also called mAb103-405B8H3; 405B81-13
**Q.** Which “Inhibition rate (%)” value [1] does the source give for B1 here?
**A.** 93.9%

B2: 409B11E12 (mouse antibody purified from hybridoma) (antibody, V domains shown)
VH: QVQLQQSGAELVRPGASVTLSCKASGYTFTDYEMHWVKQTTVHGLEWIGATDPETSYSAYNQKFKGKAILTADKSSSTAYMELRSLTSEDSAVYYCIATGWNDWGQGTSLTVSS
VL: DLKMTQSPSSMYASLGERVTITCKASQDINSYLSWFQQKPGKSPKTLIYRANRLLDGVPSRFSGSGSGQDYSLTISSLEYEDMGIYYCLQYDEFPYTFGGGTKLEIK
notes: also called mAb104-409B11E12
**Q.** Which “Inhibition rate (%)” value [1] does the source give for B2 here?
**A.** 95%

B3: 409D4E10 (mouse antibody purified from hybridoma) (antibody, V domains shown)
VH: QVQLQQSGAELVRPGASVTLSCKASGNTFTDYEMHWVKQTPVHGLEWIGATDPETDNTAYNQKFKGKAILTTDKSSSTAYMELRSLTSEDSAVYYCITSGWNDWGQGTSLTVSS
VL: DIKMTQSPSSMYASLGERVTITCKASQDINSYLSWFQQKPGKSPKTLIYRANRLLDGVPSRFSGSGSGQDYSLTISSLEYEDMGIYYCLQYNEFPYTFGGGTKLEIK
notes: also called mAb112-409D4E10
**Q.** With B3 as the binder, how does the “Inhibition rate (%)” value [1] read?
**A.** 95.9%

B4: 556F6B8 (mouse antibody purified from hybridoma) (antibody, V domains shown)
VH: RVQLKQSGPGLVQPSQSLSITCTVSGFSLIKYGVHWVRQSPGEGLEWLGVIWRGGITDYNAAFMSRLSITKDNSKSQVFFKMNSLQADDTAIYYCAKWDGPLAMDYWGQGTSVTVSS
VL: DIVMTQSHKFLSTSVGDRVSITCKASQDVGTTVAWYQQKPGQSPKLLIYWASTRHTGVPDRFTGSGSGTDFTLTISNVQSEDLADYFCQQYSSYPYTFGGGTKLEIK
notes: also called mAb123-556F6B8
**Q.** With B4 as the binder, how does the “Inhibition rate (%)” value [1] read?
**A.** 96%

B5: 105F1E10 (mouse antibody purified from hybridoma) (antibody, V domains shown)
VH: EVQLQQSGPELVKPGASVKMSCRASGYTFTDFKMHWMKQSHGKSLEWIGYIAPNNGGTAYNQKFRGKATLTVNESSNTAYMELRSLTSEDSAVYYCVDWDDVDYWGQGTTLTVSS
VL: DIKMTQSPSSMYASLGERVTITCKASQDINSYLSWFQQKSGKSPKTLIYRANRLVDGVPSRFSGSGSGQDYSLTISSLEYEDMGIYYCLQYVEFPLTFGAGTKLELK
notes: also called mAb009-105F1E10
**Q.** How did the “Inhibition rate (%)” value [1] turn out when B5 was run?
**A.** 93.1%

B6: 105F1E10 (LAG-3 mouse-human chimeric antibody) (antibody, V domains shown)
VH: EVQLQQSGPELVKPGASVKMSCRASGYTFTDFKMHWMKQSHGKSLEWIGYIAPNNGGTAYNQKFRGKATLTVNESSNTAYMELRSLTSEDSAVYYCVDWDDVDYWGQGTTLTVSS
VL: DIKMTQSPSSMYASLGERVTITCKASQDINSYLSWFQQKSGKSPKTLIYRANRLVDGVPSRFSGSGSGQDYSLTISSLEYEDMGIYYCLQYVEFPLTFGAGTKLELK
**Q.** For B6, which OD450 [2] is on record?
**A.** 0.54 OD450

**Q.** And the OD450 [3]?
**A.** 0.3 OD450

**Q.** What about the OD450 [4] of the same binder?
**A.** 0.08 OD450

**Q.** What about the OD450 [5] of the same binder?
**A.** 0.09 OD450

**Q.** What about the OD450 [6] of the same binder?
**A.** 3.6 OD450

B7: 405B8H3 (LAG-3 mouse-human chimeric antibody) (antibody, V domains shown)
VH: QVQLQQSGAELVRPGASVTLSCKASGYTFTDYEMHWVKQTPVHGLEWIGATDPETGNSAYNQKFKGKAIMTADKSSSTAYMELRSLTSEDSAVYYCISTGWNDWGQGTSLTVSS
VL: DIKMTQSPSSMYASLGERVTITCKASQDINSYLSWFQQKPGKSPKTLIYRADRLLDGVPSRFSGSGSGQDYSLTISSLEYGDMGIYYCLQYDEFPYTFGGGTKLEIK
notes: also called mouse-human chimeric antibody 405B8H3
**Q.** For B7, which OD450 [2] is on record?
**A.** 1.1 OD450

**Q.** What about the OD450 [3] of the same binder?
**A.** 0.57 OD450

**Q.** And the OD450 [4]?
**A.** 0.1 OD450

**Q.** And the OD450 [5]?
**A.** 0.08 OD450

**Q.** And the OD450 [6]?
**A.** 3.57 OD450

B8: 409B11E12 (LAG-3 mouse-human chimeric antibody) (antibody, V domains shown)
VH: QVQLQQSGAELVRPGASVTLSCKASGYTFTDYEMHWVKQTTVHGLEWIGATDPETSYSAYNQKFKGKAILTADKSSSTAYMELRSLTSEDSAVYYCIATGWNDWGQGTSLTVSS
VL: DLKMTQSPSSMYASLGERVTITCKASQDINSYLSWFQQKPGKSPKTLIYRANRLLDGVPSRFSGSGSGQDYSLTISSLEYEDMGIYYCLQYDEFPYTFGGGTKLEIK
**Q.** B8 was tested. Which OD450 [2] did it give?
**A.** 1.1 OD450

**Q.** And the OD450 [3]?
**A.** 0.47 OD450

**Q.** And the OD450 [4]?
**A.** 0.08 OD450

**Q.** What about the OD450 [5] of the same binder?
**A.** 0.09 OD450

**Q.** And the OD450 [6]?
**A.** 3.59 OD450

B9: 409D4E10 (LAG-3 mouse-human chimeric antibody) (antibody, V domains shown)
VH: QVQLQQSGAELVRPGASVTLSCKASGNTFTDYEMHWVKQTPVHGLEWIGATDPETDNTAYNQKFKGKAILTTDKSSSTAYMELRSLTSEDSAVYYCITSGWNDWGQGTSLTVSS
VL: DIKMTQSPSSMYASLGERVTITCKASQDINSYLSWFQQKPGKSPKTLIYRANRLLDGVPSRFSGSGSGQDYSLTISSLEYEDMGIYYCLQYNEFPYTFGGGTKLEIK
**Q.** Which results are given for B9?
**A.** OD450 [2]: 1.06 OD450; OD450 [3]: 0.63 OD450; OD450 [4]: 0.09 OD450; OD450 [5]: 0.1 OD450; OD450 [6]: 3.73 OD450

B10: 556F6B8 (LAG-3 mouse-human chimeric antibody) (antibody, V domains shown)
VH: RVQLKQSGPGLVQPSQSLSITCTVSGFSLIKYGVHWVRQSPGEGLEWLGVIWRGGITDYNAAFMSRLSITKDNSKSQVFFKMNSLQADDTAIYYCAKWDGPLAMDYWGQGTSVTVSS
VL: DIVMTQSHKFLSTSVGDRVSITCKASQDVGTTVAWYQQKPGQSPKLLIYWASTRHTGVPDRFTGSGSGTDFTLTISNVQSEDLADYFCQQYSSYPYTFGGGTKLEIK
notes: also called 556F8B8
**Q.** How did the OD450 [2] turn out when B10 was run?
**A.** 1.08 OD450

**Q.** What about the OD450 [3] of the same binder?
**A.** 0.38 OD450

**Q.** And the OD450 [4]?
**A.** 0.09 OD450

**Q.** What about the OD450 [5] of the same binder?
**A.** 0.14 OD450

**Q.** And the OD450 [6]?
**A.** 3.69 OD450
